Assay results as given in patent US20260146069A1 (PAPYRUS THERAPEUTICS, published 2026).

Target: the molecule itself
Test: Western blot (8% SDS-PAGE, goat anti-human OPCML) of Ni-NTA purified protein; self-association
Procedure: Samples were separated on an 8% SDS-PAGE gel, transferred to a nitrocellulose or polyvinylidene fluoride (PVDF) membrane (Millipore Corporation), blocked, and incubated with polyclonal goat anti-human OBCAM (OPCML; R&D Systems) as a primary antibody, diluted 1:1000, at 4° C. overnight. After washing, the membrane was incubated with HRP-labeled anti-goat as the secondary antibody, diluted 1:5000. After final washings, proteins were detected using Immobilon Western Chemiluminescent HRP substrate system (Millipore) and GE Healthcare Amersham “Hyperfilm” ECL film with a Kodak SRX2000 (Rochester, NY, USA) developer machine.

B1: rOPCML-Fc protein (PYTX-004 construct) (Fc fusion)
chain: ATFPKAMDNVTVRQGESATLRCTIDDRVTRVAWLNRSTILYAGNDKWSIDPRVIILVNTPTQYSIMIQNVDVYDEGPYTCSVQTDNHPKTSRVHLIVQVPPQIMNISSDITVNEGSSVTLLCLAIGRPEPTVTWRHLSVKEGQGFVSEDEYLEISDIKRDQSGEYECSALNDVAAPDVRKVKITVNYPPYISKAKNTGVSVGQKGILSCEASAVPMAEFQWFKEETRLATGLDGMRIENKGRMSTLTFFNVSEKDYGNYTCVATNKLGNTNASITLYGPGGGGLEVLFQGPGGSTKGPSVFLFPPKPKDTLMISRTPEVTCVVVDVSHEDPEVKFNWYVDGVEVHNAKTKPREEQYNSTYRVVSVLTVLHQDWLNGKEYKCKVSNKALPAPIEKTISKAKGQPREPQVYTLPPSRDELTKNQVSLTCLVKGFYPSDIAVEWESNGQPENNYKTTPPVLDSDGSFFLYSKLTVDKSRWQQGNVFSCSVMHEALHNHYTQKSLSLSPGKRTGHHHHHH
notes: Expressed in HEK-293 clone 18G9 and purified on Ni-NTA; After purification it reports a 160 kDa form and an 80 kDa monomer; also called rOPCML-Fc PYTX-004; OPCML-Fc PYTX-004
Question: Does B1 bind?
Answer: binds
